Target: NCAP (SARS-CoV-2) (UniProt P0DTC9)
Experiment: EMSA

| Sequence | Kd |
| --- | --- |
| GGAUUAAAGGUUUAUACCUUCCCAGGUAACAAACCAACCAACUUUCGAUCUCUUGUAGAUCUGUUCUCUAAACGAACUUUAAAAUCUGUGUGGCUGUCACUCGGCUGCAUGCUUAGUGCACUCACGCAGUAUAAUUAAUAACUAAUUACUGUCGUUGACAGGACACGAGUAACUCGUCUAUCUUCUGCAGGCUGCUUACGGUUUCGUCCGUGUUGCAGCCGAUCAUCAGCACAUCUAGGUUUCGUCCGGGUGUGACCGAAAGGUAAGAUGGAGAGCCUUGUCCCUGGUUUCAACGAGAAAACACACGUCCAACUCAGUUUGCCUGUUUUACAGGUUCGCGACGUGCUCGUACGUGGCUUUGGAGACUCCGUGGAGGAGGUCUUAUCAGAGGCACGUCAACAUCUUAAA [F406] | 0.0012 µM |
| GGCUGUGUGGCUGUCACUCGGCUGCAUGCUUAGUGCACUCACGCAGUAUAAUUAAUAACUAAUUACUGUCGUUGACAGGACACGAGUAACUCGUCUAUCUUCUGCAGGCUGCUUACGGUUUCGUCCGUGUUGCAGCCGAUCAUCAGCACAUCUAGGUUUCGUCCGGGUGUGACCGAAAGGUAAGAUGGAGAGCCUUGUCCCUGGUUUCAACGAGAAAACACACGUCCAACUCAGUUUGCCUGUUUUACAGGUUCGCGACGUGCUCGUACGUGGCUUUGGAGACUCCGUGGAGGAGGUCUUAUCAGAGGCACGUCAACAUCUUAAA [F323] | 0.029 µM |

From publication doi:10.1101/2021.12.25.474155
